Experimental data from patent US20140087995A1 (published 2014).
Values belong to the binder of their own block, whether it stands above or below them. Numbered stars: 1 amine (or outer) side, 2 acyl side, 3 side chain; on linkers, the order of the positions; unused ones are H or OH. Bridge positions count the residues as written; N and C are the ends. Side chains are listed from the residue outwards. Ends that are not written are not given here. * marks the point of attachment. C20 diacid = O=C(O)CCCCCCCCCCCCCCCCCCC(=O)*; γGlu = O=C(O)[C@H](CCC(=O)[*:2])N[*:1]; AEEA = NCCOCCOCC(=O)O

How the values were obtained:
[1] = biological target: T1, rat amylin receptor (rat calcitonin receptor + rat RAMP 3) (rat, UniProt P32214 25-516; Q9JJ73 23-147); assay: SPA competition vs 125I-rat amylin, membranes of BHK cells with rat calcitonin receptor + rat RAMP3 (Assay VI)
T1 construct: whole, on cells; Membranes prepared from transiently transfected BHK tk'ts 13 cells (Assay VI); also called rAmylin-R; rAmylin
T1 sequence (looked up) 1: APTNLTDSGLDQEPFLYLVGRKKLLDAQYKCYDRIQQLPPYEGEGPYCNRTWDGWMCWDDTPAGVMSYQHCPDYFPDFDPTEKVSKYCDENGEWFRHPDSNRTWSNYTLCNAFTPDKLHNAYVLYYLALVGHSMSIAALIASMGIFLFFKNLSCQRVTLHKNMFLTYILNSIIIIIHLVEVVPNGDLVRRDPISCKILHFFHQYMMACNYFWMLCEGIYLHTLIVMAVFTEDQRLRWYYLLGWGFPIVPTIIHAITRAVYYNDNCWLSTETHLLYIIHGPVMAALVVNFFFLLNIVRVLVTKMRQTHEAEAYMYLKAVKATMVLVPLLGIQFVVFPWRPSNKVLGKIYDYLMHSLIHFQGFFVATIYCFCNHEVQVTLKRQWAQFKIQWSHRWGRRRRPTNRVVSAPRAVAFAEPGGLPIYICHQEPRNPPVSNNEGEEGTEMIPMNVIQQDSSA
T1 sequence (looked up) 2: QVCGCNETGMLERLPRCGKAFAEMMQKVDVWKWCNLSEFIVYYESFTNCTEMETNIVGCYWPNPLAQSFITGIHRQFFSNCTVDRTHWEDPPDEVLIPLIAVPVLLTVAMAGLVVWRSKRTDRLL
Protocol: The binding assay was performed using scintillation proximity assay (SPA) beads (RPNQ0001) from PerkinElmer and cell membranes from the Amylin 3(a)/CRE-luc cells (as described in Assay (II)) were used. Membranes were prepared in the following way; the cells were rinsed with PBS and incubated with Versene for approximately 5 min before harvesting. The cells were flushed with PBS and the cell-suspension was centrifuged for 5 min at 1000 rpm. Cells were homogenized (ultrathurrax) in a buffer containing 20 mM Na-HEPES and 10 mM EDTA (pH 7.4) and centrifuged at 20.000 rpm for 15 min. The resulting pellet was resuspended, homogenized and centrifuged (20.000 rpm, 15 min) in a buffer containing 20 mM Na-HEPES and 0.1 mM EDTA (pH 7.4, buffer 2). The resulting pellet was resuspended in buffer 2 and protein concentration was measured (BCA protein Assay, Pierce). The homogenate was kept cold during the whole procedure. The membranes were kept at −80° C. until use. The assay was performed in a 384 well Optiplate (PerkinElmer) in a total volume of 40 ul. Membranes were mixed with SPA beads. Final concentration of membranes 35 ng/μL final and SPA beads was 0.05 mg/well. Test-compounds were dissolved in DMSO and further diluted in assay buffer (50 mM Hepes, pH 7.4, 1 mM CaCl2, 5 mM MgCl₂, 0.1% OA and 0.02% Tween20). […] The final mixture was incubated with shaking at 400 rpm for 120 min at 25° C. prior to centrifugation (1500 rpm, 10 min). Samples were analyzed on TopCounter™ (Packard). The IC₅₀ was calculated using (one site binding competition analysis) GraphPad Prism5 as a measure of receptor affinity.
Cells were grown in DMEM with 10% FBS and 1% Pen/Strep. Approximately 48 hours after transfection, the cells were harvested and membranes were prepared.

[2] = biological target: T2, human calcitonin receptor (human, UniProt P30988 25-474); assay: ratio of binding IC50s: human calcitonin receptor / human amylin receptor (reference)
T2 construct: whole, on cells; Membranes prepared from a stably transfected BHK cell line (Assay VII); also called hCTR; hCT
T2 sequence (looked up): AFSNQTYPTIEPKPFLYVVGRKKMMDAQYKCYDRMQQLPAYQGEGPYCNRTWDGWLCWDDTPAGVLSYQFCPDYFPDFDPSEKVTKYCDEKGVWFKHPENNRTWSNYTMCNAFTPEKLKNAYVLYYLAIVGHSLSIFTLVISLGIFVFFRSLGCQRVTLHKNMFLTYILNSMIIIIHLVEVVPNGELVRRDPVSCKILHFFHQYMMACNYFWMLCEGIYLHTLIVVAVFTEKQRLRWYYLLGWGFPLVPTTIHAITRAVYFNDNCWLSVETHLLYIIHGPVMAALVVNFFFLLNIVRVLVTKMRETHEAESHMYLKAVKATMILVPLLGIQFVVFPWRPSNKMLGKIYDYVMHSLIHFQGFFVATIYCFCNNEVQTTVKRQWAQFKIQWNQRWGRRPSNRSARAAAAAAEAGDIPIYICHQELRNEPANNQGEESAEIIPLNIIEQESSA
Protocol: The resulting pellet was resuspended, homogenized and centrifuged (20.000 rpm, 15 min) in a buffer containing 20 mM Na-HEPES and 0.1 mM EDTA (pH 7.4, buffer 2). The resulting pellet was resuspended in buffer 2 and protein concentration was measured (BCA protein Assay, Pierce). The homogenate was kept cold during the whole procedure. The membranes were kept at −80° C. until use. The assay was performed in a 384 well Optiplate (PerkinElmer) in a total volume of 40 ul. Membranes were mixed with SPA beads. Final concentration of membranes 35 ng/μL final and SPA beads was 0.05 mg/well. Test-compounds were dissolved in DMSO and further diluted in assay buffer (50 mM Hepes, pH 7.4, 1 mM CaCl2, 5 mM MgCl₂, 0.1% OA and 0.02% Tween20). […] The final mixture was incubated with shaking at 400 rpm for 120 min at 25° C. prior to centrifugation (1500 rpm, 10 min). Samples were analyzed on TopCounter™ (Packard). The IC₅₀ was calculated using (one site binding competition analysis) GraphPad Prism5 as a measure of receptor affinity.
Membranes were prepared in the following way; the cells were rinsed with PBS and incubated with Versene for approximately 5 min before harvesting. The cells were flushed with PBS and the cell-suspension was centrifuged for 5 min at 1000 rpm. Cells were homogenized (Ultrathurrax) in a buffer containing 20 mM Na-HEPES and 10 mM EDTA (pH 7.4) and centrifuged at 20.000 rpm for 15 min. The resulting pellet was resuspended, homogenized and centrifuged (20.000 rpm, 15 min) in a buffer containing 20 mM Na-HEPES and 0.1 mM EDTA (pH 7.4, buffer 2). The resulting pellet was resuspended in buffer 2 and protein concentration was measured (BCA protein Assay, Pierce). The homogenate was kept cold during the whole procedure. The membranes were kept at −80° C. until use. Assay was performed in a 384 well Optiplate (PerkinElmer) in a total volume of 40 ul. Membranes were mixed with SPA beads.

rat calcitonin receptor [3] = biological target: T3, rat calcitonin receptor (rat, UniProt P32214 25-516); assay: SPA competition vs 125I-calcitonin, membranes of BHK cells with rat calcitonin receptor (Assay VIII)
T3 construct: whole, on cells; Membranes prepared from transiently transfected BHK tk'ts 13 cells (Assay VIII); also called rCTR; rCT
T3 sequence (looked up): T1 sequence (looked up) 1

rat calcitonin receptor [4] = biological target: T3, rat calcitonin receptor; assay: ratio of binding IC50s: rat calcitonin receptor / rat amylin receptor (reference)

IC50 [1]: 1.64 nM
Ratio hCT/hAmylin binding [2]: 140
IC50 (rat calcitonin receptor [3]): 143 nM
Ratio rCT/rAmylin binding (rat calcitonin receptor [4]): 87
B1: N^ε1-[2-[2-[2-[[(4S)-4-carboxy-4-(19-carboxynonadecanoylamino)butanoyl]amino]ethoxy]ethoxy]acetyl]-[Arg14,Arg17,Pro21,Pro27]-h-amylin (peptide)
peptide: K([AEEA-γGlu-C20 diacid])CNTATCATQRLARFLRHSSPNFGAIPSSTNVGSNTY-NH2
modifications: disulfide 2-7; N-terminus assumed
SMILES: CC[C@H](C)[C@H](NC(=O)[C@H](C)NC(=O)CNC(=O)[C@H](Cc1ccccc1)NC(=O)[C@H](CC(N)=O)NC(=O)[C@@H]1CCCN1C(=O)[C@H](CO)NC(=O)[C@H](CO)NC(=O)[C@H](Cc1c[nH]cn1)NC(=O)[C@H](CCCNC(=N)N)NC(=O)[C@H](CC(C)C)NC(=O)[C@H](Cc1ccccc1)NC(=O)[C@H](CCCNC(=N)N)NC(=O)[C@H](C)NC(=O)[C@H](CC(C)C)NC(=O)[C@H](CCCNC(=N)N)NC(=O)[C@H](CCC(N)=O)NC(=O)[C@@H](NC(=O)[C@H](C)NC(=O)[C@@H]1CSSC[C@H](NC(=O)[C@@H](N)CCCCNC(=O)COCCOCCNC(=O)CC[C@H](NC(=O)CCCCCCCCCCCCCCCCCCC(=O)O)C(=O)O)C(=O)N[C@@H](CC(N)=O)C(=O)N[C@@H]([C@@H](C)O)C(=O)N[C@@H](C)C(=O)N[C@@H]([C@@H](C)O)C(=O)N1)[C@@H](C)O)C(=O)N1CCC[C@H]1C(=O)N[C@@H](CO)C(=O)N[C@@H](CO)C(=O)N[C@H](C(=O)N[C@@H](CC(N)=O)C(=O)N[C@H](C(=O)NCC(=O)N[C@@H](CO)C(=O)N[C@@H](CC(N)=O)C(=O)N[C@H](C(=O)N[C@@H](Cc1ccc(O)cc1)C(N)=O)[C@@H](C)O)C(C)C)[C@@H](C)O
notes: Analogue of human amylin; also called compound 82

IC50 [1]: 1.3 nM
Ratio hCT/hAmylin binding [2]: 60.7
IC50 (rat calcitonin receptor [3]): 90.6 nM
Ratio rCT/rAmylin binding (rat calcitonin receptor [4]): 69.9
B2: N^ε1-[2-[2-[2-[[(4S)-4-carboxy-4-(19-carboxynonadecanoylamino)butanoyl]amino]ethoxy]ethoxy]acetyl]-[Arg17,Pro21,Pro27,Arg34]-h-amylin (peptide)
peptide: K([AEEA-γGlu-C20 diacid])CNTATCATQRLANFLRHSSPNFGAIPSSTNVGRNTY-NH2
modifications: disulfide 2-7; N-terminus assumed
SMILES: CC[C@H](C)[C@H](NC(=O)[C@H](C)NC(=O)CNC(=O)[C@H](Cc1ccccc1)NC(=O)[C@H](CC(N)=O)NC(=O)[C@@H]1CCCN1C(=O)[C@H](CO)NC(=O)[C@H](CO)NC(=O)[C@H](Cc1c[nH]cn1)NC(=O)[C@H](CCCNC(=N)N)NC(=O)[C@H](CC(C)C)NC(=O)[C@H](Cc1ccccc1)NC(=O)[C@H](CC(N)=O)NC(=O)[C@H](C)NC(=O)[C@H](CC(C)C)NC(=O)[C@H](CCCNC(=N)N)NC(=O)[C@H](CCC(N)=O)NC(=O)[C@@H](NC(=O)[C@H](C)NC(=O)[C@@H]1CSSC[C@H](NC(=O)[C@@H](N)CCCCNC(=O)COCCOCCNC(=O)CC[C@H](NC(=O)CCCCCCCCCCCCCCCCCCC(=O)O)C(=O)O)C(=O)N[C@@H](CC(N)=O)C(=O)N[C@@H]([C@@H](C)O)C(=O)N[C@@H](C)C(=O)N[C@@H]([C@@H](C)O)C(=O)N1)[C@@H](C)O)C(=O)N1CCC[C@H]1C(=O)N[C@@H](CO)C(=O)N[C@@H](CO)C(=O)N[C@H](C(=O)N[C@@H](CC(N)=O)C(=O)N[C@H](C(=O)NCC(=O)N[C@@H](CCCNC(=N)N)C(=O)N[C@@H](CC(N)=O)C(=O)N[C@H](C(=O)N[C@@H](Cc1ccc(O)cc1)C(N)=O)[C@@H](C)O)C(C)C)[C@@H](C)O
notes: Analogue of human amylin; also called compound 78

IC50 [1]: 0.084 nM
Ratio hCT/hAmylin binding [2]: 104
IC50 (rat calcitonin receptor [3]): 10.9 nM
Ratio rCT/rAmylin binding (rat calcitonin receptor [4]): 130
B3: N^ε1-[2-[2-[2-[[(4S)-4-carboxy-4-(19-carboxynonadecanoylamino)butanoyl]amino]ethoxy]ethoxy]acetyl]-[Arg17,Pro21,Pro27,Pro28,Pro31]-h-amylin (peptide)
peptide: K([AEEA-γGlu-C20 diacid])CNTATCATQRLANFLRHSSPNFGAIPPSTPVGSNTY-NH2
modifications: disulfide 2-7
notes: Analogue of human amylin; also called compound 53

IC50 [1]: 0.686 nM
Ratio hCT/hAmylin binding [2]: 80
IC50 (rat calcitonin receptor [3]): 38.9 nM
Ratio rCT/rAmylin binding (rat calcitonin receptor [4]): 56.8
B4: N^ε1-[2-[2-[2-[[(4S)-4-carboxy-4-(19-carboxynonadecanoylamino)butanoyl]amino]ethoxy]ethoxy]acetyl]-[Arg17,Pro21,Pro27,His34]-h-amylin (peptide)
peptide: K([AEEA-γGlu-C20 diacid])CNTATCATQRLANFLRHSSPNFGAIPSSTNVGHNTY-NH2
modifications: disulfide 2-7; N-terminus assumed
SMILES: CC[C@H](C)[C@H](NC(=O)[C@H](C)NC(=O)CNC(=O)[C@H](Cc1ccccc1)NC(=O)[C@H](CC(N)=O)NC(=O)[C@@H]1CCCN1C(=O)[C@H](CO)NC(=O)[C@H](CO)NC(=O)[C@H](Cc1c[nH]cn1)NC(=O)[C@H](CCCNC(=N)N)NC(=O)[C@H](CC(C)C)NC(=O)[C@H](Cc1ccccc1)NC(=O)[C@H](CC(N)=O)NC(=O)[C@H](C)NC(=O)[C@H](CC(C)C)NC(=O)[C@H](CCCNC(=N)N)NC(=O)[C@H](CCC(N)=O)NC(=O)[C@@H](NC(=O)[C@H](C)NC(=O)[C@@H]1CSSC[C@H](NC(=O)[C@@H](N)CCCCNC(=O)COCCOCCNC(=O)CC[C@H](NC(=O)CCCCCCCCCCCCCCCCCCC(=O)O)C(=O)O)C(=O)N[C@@H](CC(N)=O)C(=O)N[C@@H]([C@@H](C)O)C(=O)N[C@@H](C)C(=O)N[C@@H]([C@@H](C)O)C(=O)N1)[C@@H](C)O)C(=O)N1CCC[C@H]1C(=O)N[C@@H](CO)C(=O)N[C@@H](CO)C(=O)N[C@H](C(=O)N[C@@H](CC(N)=O)C(=O)N[C@H](C(=O)NCC(=O)N[C@@H](Cc1c[nH]cn1)C(=O)N[C@@H](CC(N)=O)C(=O)N[C@H](C(=O)N[C@@H](Cc1ccc(O)cc1)C(N)=O)[C@@H](C)O)C(C)C)[C@@H](C)O
notes: Analogue of human amylin; also called compound 76
